Experiment [1] has as its target T1, Recombinant human IL-23 receptor (IL-23R) extracellular domain (ECD) protein (human, UniProt Q5VWK5 24-355).
T1 construct: also called human IL-23R ECD; hu IL-23R ECD
T1 sequence: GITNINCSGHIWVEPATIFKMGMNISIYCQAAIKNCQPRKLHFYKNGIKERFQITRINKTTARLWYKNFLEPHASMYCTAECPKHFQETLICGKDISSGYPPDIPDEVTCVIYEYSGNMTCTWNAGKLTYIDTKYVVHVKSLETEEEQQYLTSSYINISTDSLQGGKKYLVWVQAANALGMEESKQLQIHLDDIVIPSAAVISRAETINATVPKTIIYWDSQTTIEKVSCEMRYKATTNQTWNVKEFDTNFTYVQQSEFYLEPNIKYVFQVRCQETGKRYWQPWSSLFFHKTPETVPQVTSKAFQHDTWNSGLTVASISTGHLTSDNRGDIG
Briefly: SPR Biacore 8K, supernatant, analysis 2. Summed up:
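mAbs captured (~150 RU) on Biacore 8K; human or rat IL-23R ECD injected at 0.8–500 nM (5-fold series) at 25 °C in HBS-P+ with 100 μg/ml BSA. Association 3 min at 50 μL/min, dissociation 30 min. Ka, Kd and KD from Langmuir 1:1 fit.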
(In SPR one partner is held on a chip, and binding of the other changes the refractive index at the surface.)

The target of experiment [2] is T1, Recombinant human IL-23 receptor …. Briefly: SPR Biacore 8K, supernatant, analysis 1. On the procedure:
(§1) Affinity by SPR using Biacore 8K. Affinity measurements using Surface Plasmon Resonance (SPR) were performed using a Biacore 8K system (Cytiva). […] Approximately 9000-10000 RU (response units) of mAbs were immobilized. The kinetic experiments were performed at 25° C. in running buffer 1× of (HBS-P+ Buffer 10× (Cytiva #BR100671)+100 μg/ml BSA). To perform kinetic experiments, approximately 150 RU of mAbs were captured followed by injections of human IL-23R or rat IL-23R at concentrations ranging from 0.8 nM to 500 nM (in a 5-fold serial dilution). The association phase was monitored for 3 minutes at 50 μL/min, then followed by 30 minutes of buffer flow (dissociation phase). […] The collected data were processed using Biacore insight Evaluation software (Version 3.0.12.15655). The kinetic analysis of the data was performed using a Langmuir 1:1 binding model. The result for each mAb was reported in the format of Ka (On-rate), Kd (Off-rate) and KD (equilibrium dissociation constant).

Experiment [3] addresses T2, rat IL-23R extracellular domain (ECD) protein (rat).
T2 construct: also called rat IL-23R ECD; F1LX96 amino acids 24-354
T2 chain: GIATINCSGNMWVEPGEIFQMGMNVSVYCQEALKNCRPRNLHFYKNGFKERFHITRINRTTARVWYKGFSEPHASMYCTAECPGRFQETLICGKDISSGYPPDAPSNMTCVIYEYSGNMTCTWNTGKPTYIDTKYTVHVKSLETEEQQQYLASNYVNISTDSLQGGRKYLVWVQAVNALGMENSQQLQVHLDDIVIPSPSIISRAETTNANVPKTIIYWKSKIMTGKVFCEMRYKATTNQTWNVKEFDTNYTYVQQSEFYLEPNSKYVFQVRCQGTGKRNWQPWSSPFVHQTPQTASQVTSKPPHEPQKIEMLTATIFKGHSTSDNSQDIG
The experiment can be described thus: SPR Biacore 8K, supernatant. The protocol:
as §1

B1: I23RB60 (antibody, mouse IgG2a, kappa, V domains shown)
VH: DVQLQESGPELVKPGDSVKMSCEASGYTFTDYYIDWVKQSHGKSLEWIGYIYPNNGGISFNQKFEGKATLTVDKSSSTAYMELHSLTSEDSAVYYCAREKLRGRDYWGQGTTLTVSS
VL: DIVMTQSTSSLSASLGDRVTISCRASQDIRNNLNWYQQKPDGTVKLLIFYSSRLHSGVPSRFSGSGSGTDYSLTISNLEQEDIATYFCQQGHTLPWTFGAGTKLELKR
notes: mouse immunization; mouse IgG2a/kappa
By Kd is commonly meant a measure of binding affinity in units of concentration. In general, koff refers to the first-order rate constant of dissociation. Usually kon stands for the rate constant with which the complex forms. For B1, in experiment [1], the Kd came to 0.466 nM, the dissociation rate constant (koff) came to 0.000169 s⁻¹ and the kon worked out at 362000 M⁻¹ s⁻¹. Moreover, in experiment [2], the Kd was found to be 0.731 nM, the koff is 0.000218 s⁻¹ and the kon came out at 298000 M⁻¹ s⁻¹. For the same molecule, the binding result in experiment [3] is “no binding (tested: 500 nM)”.

B2: I23RB73 (antibody, mouse IgG2a, kappa, V domains shown)
VH: EVQLQQSGAELVKPGASVKISCKASGYTFTDHAIHWVKQRPEQGLEWIGYISLGNGDIKYSEKFRGKATLTADKTSNTAYMQLNSLTSEDSAVYFCKRSRVLRWTTYWYFDVWGAGTSVTVSS
VL: DIVMTQSHKFMSTSVGDRVSITCKASQDVSTAVAWYQQKPGQSPKLLIYWASTRLTGVPDRFTGSGSGTDYTLTISSVQAEDLALYYCQQYYNTPLTFGAGTKLELKR
notes: as for B1
Regarding B2, in experiment [1], the Kd is 13.7 nM, the koff turned out to be 0.00293 s⁻¹ and the kon amounted to 213000 M⁻¹ s⁻¹. Besides, in experiment [2], the Kd worked out at 11.7 nM, the off-rate (koff) amounted to 0.00378 s⁻¹ and the kon amounted to 322000 M⁻¹ s⁻¹. Further, the binding result in experiment [3] is given as “no binding (tested: 500 nM)”.

B3: I23RB56 (antibody, mouse IgG2a, kappa, V domains shown)
VH: EVKLVESGGGLVKPGGSLKLSCAASGFTFSSYAMSWVRQTPEKRLEWVAAINSNDGSTYYPDTVKDRFTISRDNAKNTLYLQMSSLRSEDTALYYCARHFLYFSNFYYFDYWGQGTTLTVSS
VL: DIVMTQSPKFLLVSAGDRVTITCKASQSVSNDVAWYQQKPGQSPKLLIYYASNRYTGVPDRFTGSGYGTVFTFTISTVQAEDLAVYFCQQDYSSPFTFGSGTKLEIKR
notes: as for B1
Take B3: the results for the equilibrium dissociation constant (Kd) in experiment [1], in experiment [2] and in experiment [3] were 25.5 nM, 68.4 nM and 715 nM, respectively. The results for the off-rate constant (koff) in experiment [1], in experiment [2] and in experiment [3] were 0.00898 s⁻¹, 0.0115 s⁻¹ and 0.0642 s⁻¹, respectively. The results for the kon in experiment [1], in experiment [2] and in experiment [3] were 352000 M⁻¹ s⁻¹, 168000 M⁻¹ s⁻¹ and 89700 M⁻¹ s⁻¹, respectively.

B4: I23RB82 (antibody, mouse IgG2a, kappa, V domains shown)
VH: QVQLKESGPGLVAPSQSLSITCTVSGFSLTNYALHWFRQSPGKGLEWLGVIWSDGSTDYNSPFISRLSISKDNSKSQVFFKMNSLQADDTAIYYCARSRSNYGRWYFDVWGAGTTLTVSS
VL: QIVLSQSHKFMSTSVGDRVSITCKASQDVSTAVAWYQQKPGQSPKLLIYSAFYRYTGVPDRFTGSGSGTDFTFTISSVQAEDLAVYYCQQHYSTPYTFGGGTKLEIKR
notes: as for B1
For the molecule B4, in experiment [1], the Kd came out at 34.4 nM, the koff was 0.0136 s⁻¹ and the kon is 397000 M⁻¹ s⁻¹. Also, in experiment [2], the dissociation constant Kd is 4.67 nM, the koff was found to be 0.00247 s⁻¹ and the kon was determined as 529000 M⁻¹ s⁻¹. Also, the binding result in experiment [3] was “no binding (tested: 500 nM)”.

B5: I23RB61 (antibody, mouse IgG2a, kappa, V domains shown)
VH: DVQLQESGAELVKPGASVKLSCKSFDYTFTSFDINWMKQRPGQGLEWIGWIFPGSGTTNYNEKFKGKATLTADKSSSTAYMHLTSLTSEDSAVYFCARRLTGTRYFDVWGTGTTLTVSS
VL: DIQMTQSHKFLSTSVGDRITITCKASQDVITAVAWYQQKSGQSPKLLIYWASTRHTGVPDRFTGSGSGTDYTLTISNVQAEDLALYYCQQHYTTPPTFGAGTKLELKR
notes: as for B1
As to B5, in experiment [1], the Kd was 5.5 nM, the koff was 0.00195 s⁻¹ and the kon turned out to be 355000 M⁻¹ s⁻¹. Also, in experiment [2], the Kd is 22.1 nM, the koff is 0.0101 s⁻¹ and the kon turned out to be 459000 M⁻¹ s⁻¹. In addition, the binding result in experiment [3] is “no binding (tested: 500 nM)”.

B6: I23RB77 (antibody, mouse IgG2a, kappa, V domains shown)
VH: DVQLQESGPGLVAPSQSLSITCTVSGFSLSRYSVHWVRQPPGKGLEWLGMIWGSGSTDYNSALKSRLSINKDNSKSQVFLKMNSLQTDDTAMYYCARVYYGGSPYAMDYWGQGTTVTVSS
VL: DIVMTQSPASLALSLGQRATISCRASESVDSYGNSFMHWYQQKPGQPPKLLIYLASNLESGVPARFSGSGSRTDFTLTIDPVEADDAAIYYCQQNNEEPNTFGAGTKLEMKR
notes: as for B1
Consider B6, for which, in experiment [1], the Kd was determined as 18 nM, the koff worked out at 0.01 s⁻¹ and the kon amounted to 556000 M⁻¹ s⁻¹. Also, in experiment [2], the Kd was 1.54 nM, the koff worked out at 0.00214 s⁻¹ and the kon came out at 1.39e+06 M⁻¹ s⁻¹. The binding result in experiment [3] is given as “no binding (tested: 500 nM)”.

B7: I23RB58 (antibody, mouse IgG2a, kappa, V domains shown)
VH: EVKLVESGGGLVKPGGSLKLSCAASGFSFIIYTMSWVRQTPEKRLEWVAYITSGGGITYYPDSVKGRFTISRDNARNTLYLQMSSLRSEDTAMYYCARHEGDYYDDYYRIGYAMDYWGQGTSVTVSS
VL: DIVMTQTPASLAVSLGQRATISCRASESVDSYGNSFMHWYQQKPGQPPKLLIYRASNLESGIPARFSGSGSRTDFTLTINPVEADDVATYYCQQSNEDPLTFGAGTKLEMKR
notes: as for B1
On to B7, for which, in experiment [1], the Kd is 22.5 nM, the koff was 0.00523 s⁻¹ and the kon turned out to be 233000 M⁻¹ s⁻¹. Besides, in experiment [2], the Kd was 16.2 nM, the koff was 0.00532 s⁻¹ and the kon turned out to be 328000 M⁻¹ s⁻¹. Also, the binding result in experiment [3] is recorded as “no binding (tested: 500 nM)”.

B8: I23RB93 (antibody, mouse IgG2a, kappa, V domains shown)
VH: QVQLKESGPGLVQPSQSLSITCTVSGFSLTSYGVHWVRQSPGKGLEWLGVIWSGVSTDYNAAFISRLSISKDNSKSQVFFKMNSLQADDTAIYYCARSRGSYYFDYWGQGTTLTVSS
VL: DIKMTQSPATLSVTPGDSVSLFCRASQSISNNLHWYQQKSHESPRLLIKYASQSISGIPSRFSGSGSGTDFTLSINSVETEDFGMYFCQQSNSWPLTFGGGTKLEIKR
notes: as for B1
For the molecule B8, in experiment [1], the Kd was 2.9 nM, the koff came out at 0.00123 s⁻¹ and the kon was 423000 M⁻¹ s⁻¹. Besides, in experiment [2], the Kd turned out to be 2.88 nM, the off-rate constant (koff) was 0.00138 s⁻¹ and the kon is 480000 M⁻¹ s⁻¹. Besides, the binding result in experiment [3] was “no binding (tested: 500 nM)”.

B9: I23RB86 (antibody, mouse IgG2a, kappa, V domains shown)
VH: EVQLQQSGAELVKPGASVKLSCKASGYTFTSYWLHWVKQRPGQGLEWIGEIDPSDSYTYYNQKFKGKATLTVDKSSSTAYMQLSSLTSEDSAVYYCARSPYDYDWGAYWGQGTSVTVSS
VL: DIVMTQSPSSMSVSLGDTVSITCHASQGISSNIGWLQQKPGKSFKGLIYHGTNLEDEVPSRFSGSGSGADYSLTIGSLESEDFADYYCVQYAQFPWTFGAGTKLEMKR
notes: as for B1
B9: in experiment [1], the Kd came out at 8.14 nM, the koff was determined as 0.000572 s⁻¹ and the kon was determined as 70300 M⁻¹ s⁻¹. In addition, in experiment [2], the Kd was 8.06 nM, the koff stood at 0.000587 s⁻¹ and the kon was found to be 72800 M⁻¹ s⁻¹. For the same molecule, in experiment [3], the binding result is reported as “no binding (tested: 500 nM)”.

B10: I23RB83 (antibody, mouse IgG2a, kappa, V domains shown)
VH: DVQLQESGPGLVAPSQSLSITCTVSGFSLTNYDVHWVRQSPGKGLEWLGVIWSDGSTDYNAAFISRLSFSKDNSKRQVFFKMNSLQPDDTAIYYCARNNYYRYGRNPMDYWGQGTTVTVSS
VL: DIQMTQSPASQSASLGESVTITCLASQTIGSWLAWYQQKPGKSPQLLIYAATSLADGVPSRFSGSGSGTKFSFKISSLQAEDFVSYYCQQLYSSPLTFGGGTKLEIKR
notes: as for B1
On to B10, for which, in experiment [1], the Kd was 0.345 nM, the koff worked out at 5.91e-05 s⁻¹ and the kon was found to be 172000 M⁻¹ s⁻¹. Further, in experiment [2], the Kd came to 0.366 nM, the koff was determined as 0.000119 s⁻¹ and the kon came to 325000 M⁻¹ s⁻¹. Moreover, the binding result in experiment [3] is recorded as “no binding (tested: 500 nM)”.

Values taken from patent US20250179196A1 (Janssen / Centocor, published 2025).
